For test [1], the system named is Heltog cells (HeLa cells constitutively expressing Cc-GFP). Description: Subcellular localization of Cc-GFP and ANP32A in Heltog cells after camptothecin. The format is cell-based. Particulars: 20 µM CPT, 1 or 4 h, confocal microscopy. As to the method: After 1 h or 4 h of CPT treatment, nuclei were stained by incubating cells with 1 µg mL^−1 Hoechst (Sigma‐Aldrich) for 10 min at 37 °C. Cells were then rinsed in pre‐warmed PBS at 37 °C to remove media traces, fixed by immersing the coverslips in a 4% formaldehyde (Sigma‐Aldrich) solution prepared in PBS for 10 min at room temperature, and then washed in pre‐warmed PBS at 37 °C. Cells were dried by incubating the coverslips in absolute ethanol for 2 min. Afterward, coverslips were mounted into glass slides using N‐propyl gallate (Sigma‐Aldrich), to preserve the fluorescence, and sealed with nail polish. Images were obtained in a Zeiss LSM 7 DUO confocal microscope using a 63× oil objective. For calcium phosphate transfection, 2.5 × 10^6 HEK293T cells were cultured in 150 mm diameter plates. After 72 h of growth, media was refreshed prior to transfection. For subcellular localization assays; 50,000 Heltog cells were grown over coverslips placed in 15.6 mm well plates for 24 h before transfection. DNA damage was then induced by replacing media for one containing 20 µM of camptothecin (CPT) and incubating cells for 1 h or 4 h. […] Afterwards, coverslips were mounted into glass slides using N-propyl gallate (Sigma-Aldrich), to preserve the fluorescence, and sealed with nail polish. […]

For another test, the system named is histone H3. Description: Coimmunoprecipitation of c-myc-ANP32A/B with histone H3. The class given is binding. As to conditions: anti-c-myc, Western blot; representative of three experiments. As for the experimental part:
HEK293T cells were transfected with a plasmid encoding ANP32A/b-c-myc. 24 h after transfection, cells were collected for lysates preparation in buffer containing 20 mM Tris-HCl pH 7.5, 100 mM NaCl, 0.5% NP40, 0.1 mM PMSF and cOmplete™. Cells were lysed by sonication and precleared by incubation with sepharose-A beads (GE Healthcare, GE17-5280-01) for 1 h at 4 °C. The lysates were then incubated with anti-c-myc (see Pull-down assays) over night at 4 °C and subsequently with sepharose-A beads (GE Healthcare, GE17-5280-01) for 1 h at room temperature with rotation. Following 6 washes with PBS, the samples were resuspended in SDS loading buffer and analyzed by western blotting.
(In general: In western blotting, separated proteins are transferred to a membrane and probed.)

Test [2] deals with T1, cytochrome c (Homo sapiens, UniProt P99999).
T1 construct: obtained by immunizing male rabbits with full-length recombinant Cc; made in house; host or cells: E. coli BL21 (DE3)
T1 sequence (P99999 whole entry): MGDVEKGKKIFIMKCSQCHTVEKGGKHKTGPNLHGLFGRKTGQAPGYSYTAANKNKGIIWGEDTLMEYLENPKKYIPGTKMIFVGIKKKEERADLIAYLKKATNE
The test can be described thus: ITC titration of full-length ANP32A or ANP32A1-167 with reduced Cc. The class given is binding. As to conditions: for Kd: relative error 20%; for n (reaction stoichiometry): error 0.03; for ΔG: error 0.1 kcal/mol. As to the method: Isothermal titration calorimetry (ITC) experiments were performed using a Nano ITC Low Volume instrument (TA Instruments, USA). The reference cell was filled with distilled water. Titration experiments between reduced Cc and ANP32A or ANP32A1‐167 consisted of 17 injections of 2.91 µL of a 400 µM reduced Cc solution into the sample cell containing 50 µM ANP32A construct. Both Cc and ANP32A proteins were dialyzed against 10 mM sodium phosphate buffer pH 7.4. Assays performed at moderate ionic strength used the same experimental setup, but proteins were dialyzed against 20 mM sodium phosphate pH 7.4 with 50 mM NaCl. Assays using ANP32A230‐249 or ANP32B232‐251 peptides were performed by titrating 1 mM peptide solution onto 110 or 150 µM reduced Cc solutions, respectively, or onto 100 µM HuR106‐326 solution, following the same injection configuration as described for ANP32A proteins. Cc and HuR106‐326 solutions were dialyzed against 10 mM sodium phosphate buffer pH 6.3; peptides were dissolved in the same solution. The stirring speed was set to 200 rpm for HuR106‐326 titration experiments and to 300 rpm for Cc titration experiments, to ensure cell homogeneity. ANP32A, ANP32A230‐249 and ANP32B232‐251 titration data were analyzed using Origin 7.0 (OriginLab), employing a single‐ligand binding site model or a two‐ligand binding sites model. In the last case, no binding cooperativity was observed. ANP32A1‐167 titration data was processed and analyzed using NanoAnalyze software (TA instruments).
ITC experiments were performed using a Nano ITC Low Volume instrument (TA Instruments, USA). The reference cell was filled with distilled water. Titration experiments between reduced Cc and ANP32A or ANP32A1-167 consisted of 17 injections of 2.91 µL of a 400 µM reduced Cc solution into the sample cell containing 50 µM ANP32A construct. Both Cc and ANP32A proteins were dialyzed against 10 mM sodium phosphate buffer pH 7.4. Assays performed at moderate ionic strength used the same experimental setup, but proteins were dialyzed against 20 mM sodium phosphate pH 7.4 with 50 mM NaCl. Assays using ANP32A230-249 and ANP32B232-251 peptides were performed by titrating 1 mM peptide solution onto 110 or 150 µM reduced Cc solutions, respectively, or onto 100 µM HuR106-326 solution, following the same injection configuration as described for ANP32A proteins. Cc and HuR106-326 solutions were dialyzed against 10 mM sodium phosphate buffer pH 6.3; peptides were dissolved in the same solution. The stirring speed was set to 200 rpm for HuR106-326 titration experiments and to 300 rpm for Cc titration experiments, to ensure cell homogeneity. ANP32A, ANP32A230-249 and ANP32B232-251 titration data was analyzed using Origin 7.0 (OriginLab), employing a single ligand binding site model or a two ligand binding sites model. In the last case, no binding cooperativity was observed. ANP32A1-167 titration data were processed and analyzed using NanoAnalyze software (TA instruments).

In another test the test system is 15N-labeled Cc. The test can be described thus: NMR titration (1H-15N HSQC) of 15N Cc with ANP32A or ANP32A1-167. The class given is binding. As to conditions: low ionic strength; 25 °C. As to the method:
NMR titrations of 30 µM ^15N reduced Cc with ^14N ANP32A constructs were followed by 1D ^1H and 2D ^1H-^15N heteronuclear single quantum correlation (HSQC) spectra on a Bruker Avance-III 600 MHz equipped with a cryoprobe at 25 °C. ^15N-labelled reduced Cc (in 10 mM sodium phosphate buffer, pH 7.4) was titrated with increasing amounts of ^14N ANP32A dialyzed against the same buffer. Reduced ^15N Cc and ^14N ANP32A1-167 construct were titrated in 5 mM sodium phosphate buffer pH 6.4. To maintain the redox state of Cc and to adjust the lock signal on the NMR spectrometer, 0.1 mM of sodium ascorbate and 10% of D2O were added, respectively. Data were acquired and processed using TopSpin NMR 3.5pl7 software (Bruker).
Line broadening and chemical-shift perturbation analysis were performed using the Sparky 3 NMR assignment tool (T.D. Goddard and D.G. Kneller, University of California San Francisco, USA). Assignment of ANP32A230-249 and ANP32B232-251 peptides was performed using NMRFAM-SPARKY software distribution (National Magnetic Resonance Facility at Madison) and further imported to CCPNMR ^[1], whereby distance restraints were calculated using its built-in module.

A further test deals with recombinant Cc. Description: Cc pulldown assay with HEK293T extracts. As to conditions: HEK293T extracts expressing ANP32A-c-myc, Western blot. The format is binding. As to the method:
Pulldown assays were performed as previously described.^[ [31] ^] Briefly, transfected HEK293T cells were resuspended in a lysis buffer containing 10 mM Tricine‐NaOH pH 8.5, 1 mM PMSF, and cOmplete protease inhibitors (Roche). Afterward, cells were lysed by sonication (10 s, 10% amplitude, on ice), and the resulting debris was discarded after 15 min of centrifugation at 13300 rpm and 4 °C. More details on the procedure were given in the Supporting Information Appendix.
Pulldown assays were performed as previously described ^[6^]. Briefly, transfected HEK293T cells were resuspended in a lysis buffer containing 10 mM Tricine-NaOH pH 8.5, 1 mM PMSF and cOmplete™ protease inhibitors (Roche). Afterwards, cells were lysed by sonication (10 s, 10% amplitude, on ice), and the resulting debris was discarded after 15 min of centrifugation at 13,300 rpm and 4 °C.
Cc pulldown assays were carried out by incubating cell extracts with 100 µg of recombinant Cc for 16 h at 4 °C in batch. A carboxymethylcellulose matrix (Whatman) was added, and the mixture was incubated for 30 min at 4 °C in batch. To remove possible non-specific binding, the matrix was washed 3 times with 1 mL of washing buffer containing 10 mM Tricine-NaOH pH 8.5, 20 mM NaCl, 1 mM PMSF and cOmplete™ protease inhibitors. […]

Test [3] addresses T1, cytochrome c. Description: ITC titration of ANP32A/B C-terminal peptides with reduced Cc. Particulars: single binding-site model; 1 mM peptide onto 110 or 150 µM reduced Cc; 10 mM sodium phosphate pH 6.3; relative error 20%. As for the experimental part:
Isothermal titration calorimetry (ITC) experiments were performed using a Nano ITC Low Volume instrument (TA Instruments, USA). The reference cell was filled with distilled water. Titration experiments between reduced Cc and ANP32A or ANP32A1‐167 consisted of 17 injections of 2.91 µL of a 400 µM reduced Cc solution into the sample cell containing 50 µM ANP32A construct. Both Cc and ANP32A proteins were dialyzed against 10 mM sodium phosphate buffer pH 7.4. Assays performed at moderate ionic strength used the same experimental setup, but proteins were dialyzed against 20 mM sodium phosphate pH 7.4 with 50 mM NaCl. […] ANP32A, ANP32A230‐249 and ANP32B232‐251 titration data were analyzed using Origin 7.0 (OriginLab), employing a single‐ligand binding site model or a two‐ligand binding sites model. […] ANP32A1‐167 titration data was processed and analyzed using NanoAnalyze software (TA instruments).
ITC experiments were performed using a Nano ITC Low Volume instrument (TA Instruments, USA). […] ANP32A, ANP32A230-249 and ANP32B232-251 titration data was analyzed using Origin 7.0 (OriginLab), employing a single ligand binding site model or a two ligand binding sites model. […] ANP32A1-167 titration data were processed and analyzed using NanoAnalyze software (TA instruments).

Where [4] appears, read: low ionic strength 25 mM, first listed of two independent sites, 10 mM sodium phosphate pH 7.4.
The mark [5] stands for this setting: low ionic strength 25 mM, second listed of two independent sites, 10 mM sodium phosphate pH 7.4.
The mark [6] stands for this setting: moderate ionic strength 100 mM, single site, 20 mM sodium phosphate pH 7.4, 50 mM NaCl.
Where [7] appears, read: moderate ionic strength 100 mM, single site, 20 mM sodium phosphate pH 7.4, 50 mM NaCl, error 0.4 kcal/mol.

One may read the Kd as a measure of binding affinity in units of concentration. Higher therefore signals a looser complex.

Ends that are not written are not given here.

For `CC[C@@]1(O)C(=O)OCc2c1cc1n(c2=O)Cc2cc3ccccc3nc2-1` [camptothecin], the “Cc-GFP localization after camptothecin, in words” value in test [1] was “Cc‐GFP translocated into the cell nucleus”.
Turning to “ANP32A: full-length recombinant acidic leucine‐rich nuclear phosphoprotein 32 A, histone chaperone”, the “coimmunoprecipitation of histone H3, in words” value in the test on histone H3 is listed as “H3 binds both ANP32 proteins in a similar manner”. The Kd with cytochrome c [2] (low ionic strength 25 mM, first listed of two independent sites, 10 mM sodium phosphate pH 7.4, 400 µM reduced Cc into 50 µM ANP32A) was 3.6 µM; in the test with cytochrome c [2] (low ionic strength 25 mM, second listed of two independent sites, 10 mM sodium phosphate pH 7.4, 400 µM reduced Cc into 50 µM ANP32A), 34 µM; with cytochrome c [2] (setting [6]), 32 µM. For the same compound, the “n (reaction stoichiometry)” value in the test with cytochrome c [2] (setting [4]) turned out to be 0.65; with cytochrome c [2] (setting [5]), 0.65; in the test with cytochrome c [2] (setting [6]), 0.60. Moreover, the values for the ΔG with cytochrome c [2] (setting [4]), in the test with cytochrome c [2] (setting [5]) and in the test with cytochrome c [2] (setting [6]) were -7.4 kcal/mol, -6.1 kcal/mol and -6.1 kcal/mol, respectively. Moreover, the ΔH with cytochrome c [2] (low ionic strength 25 mM, first listed of two independent sites, 10 mM sodium phosphate pH 7.4, error 0.4 kcal/mol) was 0.4 kcal/mol; with cytochrome c [2] (setting [7]), 1.5 kcal/mol. For the same compound, the “binding to Cc by ITC, in words” value with cytochrome c [2] (low ionic strength (25 mM)) is “two molecules of Cc bind the ANP32A LCAR at independent binding sites, with no observed cooperativity”; in the test with cytochrome c [2] (moderate ionic strength (100 mM)), “one of the two binding sites was lost”. Also, the “–TΔS” value with cytochrome c [2] (setting [7]) was -7.6 kcal/mol. For the same compound, the “chemical-shift perturbations of Cc amide signals, in words” value with 15N-labeled Cc is “specific chemical‐shift perturbations and substantial broadening”. Moreover, the “Cc pulldown result, in words” value with recombinant Cc is on record as “Cc interacts with ANP32A”.
As to “EEERGEKRKRETEDEGEDDD [ANP32A230‐249 Q235E/P241T]”, the Kd at cytochrome c [3] came to 190 µM.
For the compound “EEERGQKRKRETEDEGEDDD [ANP32A230‐249 P241T]”, binding on cytochrome c [3] was put at a Kd of 190 µM.

The values above are taken from paper PMC11948038, “Evolutionary Pro‐To‐Thr Mutation in the Intrinsically Disordered Domain of ANP32 Family Members Modulates Their Target Binding Modes” (Advanced Science, 2025).
